In US20030157712A1, “Methods for determining cell responses through EphB receptors” (priority 1997, published 2003):

Target: endogenous EphB1 receptor of P19 cells (teratocarcinoma-derived, pluripotent murine cells) (murine) (UniProt Q8CBF3)
Assay: cell-based or functional assay

Sequence of endogenous EphB1 receptor of P19 cells (teratocarcinoma-derived, pluripotent murine cells) (murine) (Q8CBF3 18-984): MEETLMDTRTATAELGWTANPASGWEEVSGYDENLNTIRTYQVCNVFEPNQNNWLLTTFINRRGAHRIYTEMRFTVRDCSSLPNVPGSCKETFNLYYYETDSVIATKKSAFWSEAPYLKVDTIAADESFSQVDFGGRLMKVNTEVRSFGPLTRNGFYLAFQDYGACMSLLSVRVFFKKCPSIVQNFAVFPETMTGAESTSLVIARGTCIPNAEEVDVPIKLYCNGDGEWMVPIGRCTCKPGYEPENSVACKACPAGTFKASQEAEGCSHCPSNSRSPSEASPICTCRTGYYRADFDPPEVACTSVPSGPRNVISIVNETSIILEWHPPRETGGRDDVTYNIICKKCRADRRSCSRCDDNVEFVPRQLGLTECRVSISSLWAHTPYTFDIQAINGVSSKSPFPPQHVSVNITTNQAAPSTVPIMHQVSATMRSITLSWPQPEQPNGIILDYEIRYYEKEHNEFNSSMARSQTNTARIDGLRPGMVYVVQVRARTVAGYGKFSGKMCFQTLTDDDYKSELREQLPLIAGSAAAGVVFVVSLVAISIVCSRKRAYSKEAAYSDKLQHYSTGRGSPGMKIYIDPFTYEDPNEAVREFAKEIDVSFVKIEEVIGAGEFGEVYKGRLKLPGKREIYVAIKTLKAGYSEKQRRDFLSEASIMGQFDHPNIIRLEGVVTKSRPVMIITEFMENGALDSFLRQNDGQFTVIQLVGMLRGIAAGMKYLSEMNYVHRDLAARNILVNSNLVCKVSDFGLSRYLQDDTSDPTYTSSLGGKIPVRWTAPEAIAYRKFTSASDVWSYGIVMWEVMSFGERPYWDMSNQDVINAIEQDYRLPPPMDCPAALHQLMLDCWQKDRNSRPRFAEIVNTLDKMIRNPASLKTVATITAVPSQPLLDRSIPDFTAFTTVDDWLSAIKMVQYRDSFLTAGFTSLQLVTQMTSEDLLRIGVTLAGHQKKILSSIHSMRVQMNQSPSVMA

preclustered multimeric ephrin-B1/Fc (ephrin-B1/Fc + anti-Fc) (from UniProt P98172 28-237; P01857 99-330) (Fc fusion)
% attached P19 cells in wells preadsorbed with ligand and fibronectin: 60%
